The assay deals with Fes; GST-cortactin (residues 382–550). Put plainly: In vivo kinase assay: Fes autophosphorylation and GST-cortactin phosphorylation in transfected HEK293T cells. The conditions noted are these: HEK293T cells, anti-pTyr western blot, in words. The format is cell-based, human. From the text: To pursue the relevance of the observed interdomain interactions, we studied the effects of mutating residues in the SH2-kinase interface on human Fes activity. To this end, we monitored Fes autophosphorylation and transphosphorylation activity in transfected cells, using cortactin (residues 382–550) fused to GST as an exogenous substrate (Figures 2A and 2B). In an effort to perturb the close interaction between the SH2 and kinase domains, we mutated the conserved glycine residue (G463) located in the tightly packed interface between the SH2 N terminus and the kinase β4/β5 loop to valine (mutant G/V). Introducing this bulky side chain would be expected to sterically hinder alignment of the SH2 and kinase domains, resulting in an altered domain packing. Wild-type (WT) and G/V mutant full-length human Fes, each with an N-terminal Flag epitope, were expressed in HEK293T cells together with GST-cortactin.
Wild-type p130^Gag-Fps and the RX15m and AX9m mutants ([Stone et al., 1984]) were subcloned into the vector pRK5-myc ([Winberg et al., 2000]). Full-length human Fes was cloned into the vector pCMV7.1-3xFlag (Sigma, St. Louis, MO). Site-directed mutagenesis was performed using the QuickChange® II XL Kit (Stratagene, La Jolla, CA) following the manufacturer's directions. A GST-tagged C-terminal fragment of human cortactin (residues 382–550, accession Q14247) was prepared by PCR from cDNA (accession BC008799) and cloned into pEBG vector (gift from C. Duckett, University of Michigan Medical School, Ann Arbor).
HEK293T cells were maintained in Dulbecco's modified Eagle's medium supplemented with 10% (vol/vol) fetal bovine serum, 100 units/ml penicillin G sodium, and 100 μg/ml streptomycin and incubated at 37°C, 5% CO2.
Flag-tagged Fes or Myc-tagged p130^Gag-Fps and mutants thereof were cotransfected with GST-cortactin into HEK293T cells. After 24 hr, cells were lysed with NP-40 cell lysis buffer (50 mM Tris-HCl [pH 7.5], 150 mM NaCl, 1% NP-40, and 1 mM EDTA) that contained 1 mM phenylmethylsulfonyl fluoride, 10 μg/ml leupeptin, 10 μg/ml aprotinin, and 10 μg/ml pepstatin A. Cell lysates, normalized for protein concentration, were used in anti-Flag M2 antibody-agarose (Sigma) or anti-Myc antibody immunoprecipitations or glutathione sepharose affinity precipitations. Associated proteins were resolved using SDS-PAGE and analyzed by western blotting using anti-Flag M2 (Sigma), anti-c-Myc 9E10 (Santa Cruz), HRP-conjugated anti-GST (Santa Cruz), or anti-pTyr 4G10 (Upstate) antibodies.
In general terms: In western blotting, separated proteins are transferred to a membrane and probed.

B1: R/M: Fes with R483 in the SH2 pTyr-binding pocket substituted with methionine (protein, UniProt P07332 1-822, looked up, variant R483M)
Tyrosine-protein kinase …: MGFSSELCSPQGHGVLQQMQEAELRLLEGMRKWMAQRVKSDREYAGLLHHMSLQDSGGQSRAISPDSPISQSWAEITSQTEGLSRLLRQHAEDLNSGPLSKLSLLIRERQQLRKTYSEQWQQLQQELTKTHSQDIEKLKSQYRALARDSAQAKRKYQEASKDKDRDKAKDKYVRSLWKLFAHHNRYVLGVRAAQLHHQHHHQLLLPGLLRSLQDLHEEMACILKEILQEYLEISSLVQDEVVAIHREMAAAAARIQPEAEYQGFLRQYGSAPDVPPCVTFDESLLEEGEPLEPGELQLNELTVESVQHTLTSVTDELAVATEMVFRRQEMVTQLQQELRNEEENTHPRERVQLLGKRQVLQEALQGLQVALCSQAKLQAQQELLQTKLEHLGPGEPPPVLLLQDDRHSTSSSEQEREGGRTPTLEILKSHISGIFRPKFSLPPPLQLIPEVQKPLHEQLWYHGAIPRAEVAELLVHSGDFLVMESQGKQEYVLSVLWDGLPRHFIIQSLDNLYRLEGEGFPSIPLLIDHLLSTQQPLTKKSGVVLHRAVPKDKWVLNHEDLVLGEQIGRGNFGEVFSGRLRADNTLVAVKSCRETLPPDLKAKFLQEARILKQYSHPNIVRLIGVCTQKQPIYIVMELVQGGDFLTFLRTEGARLRVKTLLQMVGDAAAGMEYLESKCCIHRDLAARNCLVTEKNVLKISDFGMSREEADGVYAASGGLRQVPVKWTAPEALNYGRYSSESDVWSFGILLWETFSLGASPYPNLSNQQTREFVEKGGRLPCPELCPDAVFRLMEQCWAYEPGQRPSFSTIYQELQSIRKRHR
Regarding B1, under “Flag-Fes”, the Fes autophosphorylation entry was “failed to autophosphorylate”. Besides, the transphosphorylation of cortactin entry (GST-cortactin) is reported as “significantly reduced ability to transphosphorylate cortactin”.

The values are drawn from PMC2572732, “Structural Coupling of SH2-Kinase Domains Links Fes and Abl Substrate Recognition and Kinase Activation” (Cell, 2008).
